Test results from patent publication US20140329706A1 (CALIFORNIA INSTITUTE OF TECHNOLOGY, published 2014).

Key:
[1] = molecular target: T1, GST (control, expressed alone without a PDZ domain) (UniProt P08515 1-218 = GST); assay: affinity chromatography on … peptide resin, SDS-PAGE
T1 construct: also called Glutathione S-Transferase
Description: (§1) Resuspended cells were incubated on a shaking platform at low speed for 20 minutes at room temperature before the lysate was clarified by centrifugation at 16,000×g for 30 min at 4° C. […] The mixtures were then subjected to centrifugation at 1000×g for 2 min, and the supernatant was removed by pipetting. […] The cap was removed and the resin washed with 20 column volumes of Purification Buffer.

[2] = molecular target: T2, MBP (control, expressed alone without a PDZ domain) (UniProt P0AEX9 27-392 = MBP); assay: as above
Description: as §1

[3] = molecular target: T3, HaloTag-PDZ1+PDZ2 fusion protein (residues 61 to 249 of Mus musculus PSD-95) (Mus musculus, UniProt Q62108 61-249); assay: affinity chromatography on HaloTag-PDZ1+PDZ2 resin, SIESDV peptide elution, SDS-PAGE
T3 construct: range 61-249; also called PSD-95 PDZ1-PDZ2; not shown: HaloTag

[4] = molecular target: T1, GST (control, expressed alone without a …); assay: affinity pull-down from clarified E. coli lysate on PSD-95 PDZ2 resin, wash, elution with free SIESDV peptide (400 ug/ml), SDS-PAGE with GelCode Blue
Description: as §1

[5] = molecular target: T2, MBP (control, expressed alone without a …); assay: affinity chromatography on 2× nNOS PDZ-β-hairpin resin, SDS-PAGE
Description: as §1

[6] = molecular target: T1, GST (control, expressed alone without a …); assay: affinity chromatography on 1× nNOS PDZ-β-hairpin resin, SDS-PAGE
Description: as §1

[7] = molecular target: T2, MBP (control, expressed alone without a …); assay: as above
Description: as §1

T1 sequence (P08515 whole entry, the tested form may be a part): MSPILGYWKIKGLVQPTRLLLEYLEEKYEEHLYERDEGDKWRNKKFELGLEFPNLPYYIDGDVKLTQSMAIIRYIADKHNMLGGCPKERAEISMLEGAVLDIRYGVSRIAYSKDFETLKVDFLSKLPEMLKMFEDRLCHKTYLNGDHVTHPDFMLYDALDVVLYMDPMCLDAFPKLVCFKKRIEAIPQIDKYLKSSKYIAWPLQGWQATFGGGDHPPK

## GAGSSIESDV (also called GluN2B ligand-NHS-Agarose) [NR2B (GluN2B) peptide ligand GAGSSIESDV]
[1]
  binding result: no binding
[2]
  binding result: no binding

B1: cypin (guanine deaminase, Homo sapiens: AA 1-454) (other, UniProt Q9Y2T3 1-454, looked up)
chain: MCAAQMPPLAHIFRGTFVHSTWTCPMEVLRDHLLGVSDSGKIVFLEEASQQEKLAKEWCFKPCEIRELSHHEFFMPGLVDTHIHASQYSFAGSSIDLPLLEWLTKYTFPAEHRFQNIDFAEEVYTRVVRRTLKNGTTTACYFATIHTDSSLLLADITDKFGQRAFVGKVCMDLNDTFPEYKETTEESIKETERFVSEMLQKNYSRVKPIVTPRFSLSCSETLMGELGNIAKTRDLHIQSHISENRDEVEAVKNLYPSYKNYTSVYDKNNLLTNKTVMAHGCYLSAEELNVFHERGASIAHCPNSNLSLSSGFLNVLEVLKHEVKIGLGTDVAGGYSYSMLDAIRRAVMVSNILLINKVNEKSLTLKEVFRLATLGGSQALGLDGEIGNFEVGKEFDAILINPKASDSPIDLFYGDFFGDISEAVIQKFLYLGDDRNIEEVYVGGKQVVPFSSSV
notes: range 1-454; also called untagged cypin
[3]
  binding result: binds

B2: MBP-cypin (other, Homo sapiens, UniProt Q9Y2T3 1-454, looked up, not shown: large carriers)
chain: B1 chain
notes: range 1-454; also called cypin fused to an N-terminal MBP
[3]
  binding result: binds

B3: PDZ2 domain of PSD-95 (other, UniProt Q62108 160-246, looked up)
chain: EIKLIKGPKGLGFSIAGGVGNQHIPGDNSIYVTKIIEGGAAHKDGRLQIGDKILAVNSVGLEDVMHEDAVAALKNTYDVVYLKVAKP
notes: domain: PDZ2; Species (Mus musculus) is stated only for the PDZ1+PDZ2 construct; also called PSD-95 PDZ2
[4]
  binding result: no binding

B4: 2× nNOS PDZ domain fusion protein that contains a BH after each nNOS PDZ domain (other)
chain: QPNVISVRLFKRKVGGLGFLVKERVSKPPVIISDLIRGGAAEQSGLIQAGDIILAVNDRPLVDLSYDSALEVLRGIASETHVVLILRGPEGFTTHLETTFTGDGTPKTIRVTQPLGTPTQPNVISVRLFKRKVGGLGFLVKERVSKPPVIISDLIRGGAAEQSGLIQAGDIILAVNDRPLVDLSYDSALEVLRGIASETHVVLILRGPEGFTTHLETTFTGDGTPKTIRVTQPLGTPT
notes: domain: nNOS PDZ domain with β-Hairpin; also called nNOS-BH-nNOS-BH; 2× nNOS PDZ-β-hairpin domains
[5]
  binding result: no binding

B5: nNOS PDZ domain (AA 11-129 of Mus musculus nNOS) (other, UniProt Q9Z0J4 11-129, looked up)
chain: IQPNVISVRLFKRKVGGLGFLVKERVSKPPVIISDLIRGGAAEQSGLIQAGDIILAVNDRPLVDLSYDSALEVLRGIASETHVVLILRGPEGFTTHLETTFTGDGTPKTIRVTQPLGTP
notes: range 11-129; also called 1× nNOS PDZ domain; 1× nNOS PDZ-β-hairpin domain
[6]
  binding result: no binding
[7]
  binding result: no binding
